From paper PMC9851909, “Structure of a volume-regulated heteromeric LRRC8A/C channel” (Nature Structural & Molecular Biology, 2022)
Where “and” joins values, the source holds several entries; their conditions need not be identical. Equal values may be shown once.

Legend:
[1] = biological target: murine LRRC8C, full length (murine) (UniProt Q8R502); test: affinity purification with mass spectrometry; differentially tagged murine LRRC8A (or LRRC8A^SAM) and LRRC8C co-expressed in HEK293S GnTI- or LRRC8-/- cells at A:C DNA ratios of 1:1 or 1:3; tandem affinity purification (Ni-NTA, then Streptactin) in digitonin, 25 mM Tris pH 8.5, 250 mM NaCl, 4 °C; LC-MS/MS absolute quantification with isotope-labelled peptides
[2] = biological target: murine LRRC8C, full length (murine) (UniProt Q8R502); test: cryo-EM structure; tandem-purified LRRC8A/C (A:C DNA 1:1 and 1:3) in digitonin with tag-free Sb1 added at a 1.5 molar excess before vitrification; C1; high resolution only for the 1:1 sample
[3] = biological target: the molecule itself; test: cryo-EM structure; homomeric LRRC8C at 5 mg/ml in digitonin, three data sets, two of them with Sb1 added at a 1:1.5 molar excess (per LRRC8C subunit) as negative control; C7 symmetry
[4] = biological target: T1, endogenous LRRC8A of HEK293 cells (human (endogenous in HEK293T), UniProt Q8IWT6); test: affinity purification with mass spectrometry; pairs of the bait Sb1: endogenous LRRC8 channels from HEK293T (WT) or LRRC8^B,D,E-/- cells isolated on SBP-tagged Sb1 and Streptactin resin (Sb1 either expressed in the same cells or purified and bound to the resin before the lysate was loaded; which protocol for which sample is not told); 2% GDN lysis, 36 mM Tris pH 8.5, 150 mM NaCl; tryptic digest, LC-MS/MS
T1 construct: LRRC8A, endogenous in HEK293 cells; also called A subunit; SWELL1; source: endogenous, HEK293T and HEK293 LRRC8^B,D,E-/- cells, lysate in 2% GDN; isolated on SBP-tagged Sb1

[5] = biological target: T2, endogenous LRRC8C of HEK293 cells (human (endogenous in HEK293T), UniProt Q8TDW0 1-803); test: affinity purification with mass spectrometry; pairs of endogenous LRRC8 subunits in the channels isolated on SBP-tagged Sb1 from HEK293T (WT) or LRRC8^B,D,E-/- cells; shotgun LC-MS/MS and absolute quantification with two isotope-labelled reference peptides per subunit; conditions: partners not purified
T2 construct: LRRC8C, endogenous in HEK293 cells; also called C subunit; source: endogenous, HEK293T and HEK293 LRRC8^B,D,E-/- cells, lysate in 2% GDN
T2 sequence (looked up): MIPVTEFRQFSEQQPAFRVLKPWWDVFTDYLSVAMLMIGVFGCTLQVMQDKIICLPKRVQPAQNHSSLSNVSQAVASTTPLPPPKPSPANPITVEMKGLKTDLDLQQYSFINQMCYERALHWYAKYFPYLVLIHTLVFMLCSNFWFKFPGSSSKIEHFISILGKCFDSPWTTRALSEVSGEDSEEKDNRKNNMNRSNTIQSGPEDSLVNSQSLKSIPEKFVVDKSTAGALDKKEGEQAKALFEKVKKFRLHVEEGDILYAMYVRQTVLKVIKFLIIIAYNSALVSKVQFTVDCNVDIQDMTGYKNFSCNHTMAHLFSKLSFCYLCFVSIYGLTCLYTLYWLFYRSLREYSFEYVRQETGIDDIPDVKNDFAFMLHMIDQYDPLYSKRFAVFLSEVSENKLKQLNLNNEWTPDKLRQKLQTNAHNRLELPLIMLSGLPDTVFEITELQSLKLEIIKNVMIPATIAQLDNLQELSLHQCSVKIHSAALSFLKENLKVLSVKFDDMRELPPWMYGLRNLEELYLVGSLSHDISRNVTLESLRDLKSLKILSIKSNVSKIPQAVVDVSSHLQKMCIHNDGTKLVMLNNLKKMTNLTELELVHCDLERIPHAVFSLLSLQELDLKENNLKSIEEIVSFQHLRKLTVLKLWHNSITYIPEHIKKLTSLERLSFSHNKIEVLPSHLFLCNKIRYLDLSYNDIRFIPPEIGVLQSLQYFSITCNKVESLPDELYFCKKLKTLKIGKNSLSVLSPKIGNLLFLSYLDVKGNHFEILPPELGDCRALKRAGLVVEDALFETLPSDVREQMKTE

## LRRC8A^SAM, construct for co-expression with LRRC8C (from UniProt Q80WG5 1-67; Q80WG5 93-810)
[1]
  stoichiometry N: 2 A:C

## murine LRRC8A (from UniProt Q80WG5 1-810) (natural protein)
[2]
  stoichiometry N: 2 A:C
[1]
  stoichiometry N: 2 A:C and 1.8 A:C

B1: murine LRRC8C, full length (natural protein, UniProt Q8R502 1-803, looked up)
chain: MIPVTEFRQFSEQQPAFRVLKPWWDVFTDYLSVAMLMIGVFGCTLQVMQDKIICLPKRVQPAQNHSSVPNVSQAVISTTPLPPPKPSPTNPATVEMKGLKTDLDLQQYSFINQMCYERALHWYAKYFPYLVLIHTLVFMLCSNFWFKFPGSSSKIEHFISILGKCFDSPWTTRALSEVSGEDSEEKDNRKNNMNRSGTIQSGPEGNLVRSQSLKSIPEKFVVDKSAAGALDKKEGEQAKALFEKVKKFRLHVEEGDILYAMYVRQTVLKVIKFLIIIAYNSALVSKVQFTVDCNVDIQDMTGYKNFSCNHTMAHLFSKLSFCYLCFVSIYGLTCLYTLYWLFYRSLREYSFEYVRQETGIDDIPDVKNDFAFMLHMIDQYDPLYSKRFAVFLSEVSENKLKQLNLNNEWTPDKLRQKLQTNAHNRLELPLIMLSGLPDTVFEITELQSLKLEIIKNVMIPATIAQLDNLQELCLHQCSVKIHSAALSFLKENLKVLSVKFDDMRELPPWMYGLRNLEELYLVGSLSHDISKNVTLESLRDLKSLKILSIKSNVSKIPQAVVDVSSHLQKMCVHNDGTKLVMLNNLKKMTNLTELELVHCDLERIPHAVFSLLSLQELDLKENNLKSIEEIVSFQHLRKLTVLKLWYNSIAYIPEHIKKLTSLERLFFSHNKVEVLPSHLFLCNKIRYLDLSYNDIRFIPPEIGVLQSLQYFSITCNKVESLPDELYFCKKLKTLKIGKNSLSVLSPKIGNLLFLSYLDIKGNHFEVLPPELGDCRALKRAGLVVEDALFETLPSDVREQMKAD
notes: LRRC8C, mouse; A remnant of the 3C site probably stays at the C-terminus; also called C subunit; C1; source: HEK293 LRRC8-/- cells (homomer; LRRC8A/C without Sb1; LRRC8A^SAM/C) or HEK293S GnTI- cells (LRRC8A/C/Sb1 samples), transfected, purified (Streptactin, SEC; tandem purification for heteromers) in digitonin; not shown: Venus, C-terminal, cleaved; myc, C-terminal, cleaved; SBP, C-terminal, …
[3]
  stoichiometry N: 7

B2: SBP-tagged sybody Sb1 (VHH)
VHH: QVQLVESGGGLVQAGGSLRLSCAASGFPVGRHFMYWYRQAPGKEREWVAAIYSYGEYTEYADSVKGRFTISRDNAKNTVYLQMNSLKPEDTAVYYCYVYVGNEYWGQGTQVTVSA
notes: as the chain of m3 (sybody Sb1), here with a C-terminal 3C site, myc tag and SBP tag (pcDXc3MS); they are in PDB 8B41 and PDB 7P5V; also called SBP-tagged Sb1; immobilized Sb1; not shown: myc, C-terminal, kept; SBP, C-terminal, kept
[4]
  binding result: binds

B3: endogenous LRRC8A of HEK293 cells (natural protein, human (endogenous in HEK293T), UniProt Q8IWT6 1-810, looked up)
chain: MIPVTELRYFADTQPAYRILKPWWDVFTDYISIVMLMIAVFGGTLQVTQDKMICLPCKWVTKDSCNDSFRGWAAPGPEPTYPNSTILPTPDTGPTGIKYDLDRHQYNYVDAVCYENRLHWFAKYFPYLVLLHTLIFLACSNFWFKFPRTSSKLEHFVSILLKCFDSPWTTRALSETVVEESDPKPAFSKMNGSMDKKSSTVSEDVEATVPMLQRTKSRIEQGIVDRSETGVLDKKEGEQAKALFEKVKKFRTHVEEGDIVYRLYMRQTIIKVIKFILIICYTVYYVHNIKFDVDCTVDIESLTGYRTYRCAHPLATLFKILASFYISLVIFYGLICMYTLWWMLRRSLKKYSFESIREESSYSDIPDVKNDFAFMLHLIDQYDPLYSKRFAVFLSEVSENKLRQLNLNNEWTLDKLRQRLTKNAQDKLELHLFMLSGIPDTVFDLVELEVLKLELIPDVTIPPSIAQLTGLKELWLYHTAAKIEAPALAFLRENLRALHIKFTDIKEIPLWIYSLKTLEELHLTGNLSAENNRYIVIDGLRELKRLKVLRLKSNLSKLPQVVTDVGVHLQKLSINNEGTKLIVLNSLKKMANLTELELIRCDLERIPHSIFSLHNLQEIDLKDNNLKTIEEIISFQHLHRLTCLKLWYNHIAYIPIQIGNLTNLERLYLNRNKIEKIPTQLFYCRKLRYLDLSHNNLTFLPADIGLLQNLQNLAITANRIETLPPELFQCRKLRALHLGNNVLQSLPSRVGELTNLTQIELRGNRLECLPVELGECPLLKRSGLVVEEDLFNTLPPEVKERLWRADKEQA
notes: LRRC8A, endogenous in HEK293 cells; also called A subunit; SWELL1; source: endogenous, HEK293T and HEK293 LRRC8^B,D,E-/- cells, lysate in 2% GDN; isolated on SBP-tagged Sb1
[5]
  stoichiometry N: 2.9 A:C and 1.8 A:C
